This assay has as its target Ub(1-76)-aminoluciferin (human) (UniProt P0CG48). Kind of assay: cell-based or functional assay.

For the substance “UCHL3 (ubiquitin carboxyl-terminal hydrolase isozyme L3) (from UniProt P15374 1-230) (enzyme)”, the fold decrease in limit of detection against Z-RLRGG-amino-luciferin was determined as 1000 fold.

The values above are taken from patent US20120058499A1, “Bioluminescent Detection of Protease Activity” (priority 2010, published 2012).
